Assay results from the supplement of paper PMC11316812.
± gives the standard deviation of the averaged measurements.

What was measured:
hTERT-HMEC = assay: percentage of EdU-negative (G0-arrested) nuclei per well, 72 h; higher = more G0 arrest; details: reference: sequence is the full UniProt precursor, the tested protein was the secreted form or ectodomain
MCF7 = assay: as above; details: reference: sequence is the full UniProt precursor, the tested protein was the secreted form or ectodomain
[1] = protein concentration 0.03025 µM
[2] = protein concentration 0.3025 µM
[3] = protein concentration 0.03125 µM
[4] = protein concentration 0.3125 µM
[5] = protein concentration 0.0225 µM
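Further: secreted proteins added to cultured cells, EdU pulse at the end, nuclei found by Hoechst imaging, EdU status from nuclear versus surrounding ring intensity ratio, PBS as neutral control.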

Sequence | percentage of EdU-negative (hTERT-HMEC; [3]) [%] | percentage of EdU-negative (hTERT-HMEC; [4]) [%] | percentage of EdU-negative (MCF7; [3]) [%] | percentage of EdU-negative (MCF7; [4]) [%] | percentage of EdU-negative (hTERT-HMEC; [5]) [%] | percentage of EdU-negative (hTERT-HMEC; protein concentration 0.225 µM) [%] | percentage of EdU-negative (MCF7; [5]) [%] | percentage of EdU-negative (MCF7; protein concentration 0.225 µM) [%] | also measured
MLLLFSVILISWVSTVGGEGTLCDFPKIHHGFLYDEEDYNPFSQVPTGEVFYYSCEYNFVSPSKSFWTRITCTEEGWSPTPKCLRMCSFPFVKNGHSESSGLIHLEGDTVQIICNTGYSLQNNEKNISCVERGWSTPPICSFTKGECHVPILEANVDAQPKKESYKVGDVLKFSCRKNLIRVGSDSVQCYQFGWSPNFPTCKGQVRSCGPPPQLSNGEVKEIRKEEYGHNEVVEYDCNPNFIINGPKKIQCVDGEWTTLPTCVEQVKTCGYIPELEYGYVQPSVPPYQHGVSVEVNCRNEYAMIGNNMITCINGIWTELPMCVATHQLKRCKIAGVNIKTLLKLSGKEFNHNSRIRYRCSDIFRYRHSVCINGKWNPEVDCTEKREQFCPPPPQIPNAQNMTTTVNYQDGEKVAVLCKENYLLPEAKEIVCKDGRWQSLPRCVESTAYCGPPPSINNGDTTSFPLSVYPPGSTVTYRCQSFYKLQGSVTVTCRNKQWSEPPRCLDPCVVSEENMNKNNIQLKWRNDGKLYAKTGDAVEFQCKFPHKAMISSPPFRAICQEGKFEYPICE [Q9BXR6] | – | – | – | – | – | – | – | – | percentage of EdU-negative (hTERT-HMEC; protein concentration 0.024 µM): 4.32 ± 0.27%; percentage of EdU-negative (hTERT-HMEC; protein concentration 0.24 µM): 5.71 ± 1.3%; percentage of EdU-negative (MCF7; protein concentration 0.024 µM): 25.7 ± 0.37%; percentage of EdU-negative (MCF7; protein concentration 0.24 µM): 30.6 ± 1.7%
MGVCGYLFLPWKCLVVVSLRLLFLVPTGVPVRSGDATFPKAMDNVTVRQGESATLRCTIDNRVTRVAWLNRSTILYAGNDKWCLDPRVVLLSNTQTQYSIEIQNVDVYDEGPYTCSVQTDNHPKTSRVHLIVQVSPKIVEISSDISINEGNNISLTCIATGRPEPTVTWRHISPKAVGFVSEDEYLEIQGITREQSGDYECSASNDVAAPVVRRVKVTVNYPPYISEAKGTGVPVGQKGTLQCEASAVPSAEFQWYKDDKRLIEGKKGVKVENRPFLSKLIFFNVSEHDYGNYTCVASNKLGHTNASIMLFGPGAVSEVSNGTSRRAGCVWLLPLLVLHLLLKF [Q9P121] | – | – | – | – | – | – | – | – | percentage of EdU-negative (hTERT-HMEC; [1]): 5.01 ± 0.68%; percentage of EdU-negative (hTERT-HMEC; [2]): 6.84 ± 0.93%; percentage of EdU-negative (MCF7; [1]): 24.73 ± 0.092%; percentage of EdU-negative (MCF7; [2]): 28.9 ± 1.9%
MPGIKRILTVTILALCLPSPGNAQAQCTNGFDLDRQSGQCLDIDECRTIPEACRGDMMCVNQNGGYLCIPRTNPVYRGPYSNPYSTPYSGPYPAAAPPLSAPNYPTISRPLICRFGYQMDESNQCVDVDECATDSHQCNPTQICINTEGGYTCSCTDGYWLLEGQCLDIDECRYGYCQQLCANVPGSYSCTCNPGFTLNEDGRSCQDVNECATENPCVQTCVNTYGSFICRCDPGYELEEDGVHCSDMDECSFSEFLCQHECVNQPGTYFCSCPPGYILLDDNRSCQDINECEHRNHTCNLQQTCYNLQGGFKCIDPIRCEEPYLRISDNRCMCPAENPGCRDQPFTILYRDMDVVSGRSVPADIFQMQATTRYPGAYYIFQIKSGNEGREFYMRQTGPISATLVMTRPIKGPREIQLDLEMITVNTVINFRGSSVIRLRIYVSQYPF [Q9UBX5] | 4.99 ± 0.79 | 6.25 ± 1.1 | 27.1 ± 1 | 26.6 ± 2 | – | – | – | – | –
MATMVPSVLWPRACWTLLVCCLLTPGVQGQEFLLRVEPQNPVLSAGGSLFVNCSTDCPSSEKIALETSLSKELVASGMGWAAFNLSNVTGNSRILCSVYCNGSQITGSSNITVYRLPERVELAPLPPWQPVGQNFTLRCQVEDGSPRTSLTVVLLRWEEELSRQPAVEEPAEVTATVLASRDDHGAPFSCRTELDMQPQGLGLFVNTSAPRQLRTFVLPVTPPRLVAPRFLEVETSWPVDCTLDGLFPASEAQVYLALGDQMLNATVMNHGDTLTATATATARADQEGAREIVCNVTLGGERREARENLTVFSFLGPIVNLSEPTAHEGSTVTVSCMAGARVQVTLDGVPAAAPGQPAQLQLNATESDDGRSFFCSATLEVDGEFLHRNSSVQLRVLYGPKIDRATCPQHLKWKDKTRHVLQCQARGNPYPELRCLKEGSSREVPVGIPFFVNVTHNGTYQCQASSSRGKYTLVVVMDIEAGSSHFVPVFVAVLLTLGVVTIVLALMYVFREHQRSGSYHVREESTYLPLTSMQPTEAMGEEPSRAE | – | – | – | – | 4.98 ± 0.59 | 16.4 ± 1.8 | 25.2 ± 0.75 | 28 ± 1.2 | –
MAAQGCAASRLLQLLLQLLLLLLLLAAGGARARWRGEGTSAHLRDIFLGRCAEYRALLSPEQRNKNCTAIWEAFKVALDKDPCSVLPSDYDLFINLSRHSIPRDKSLFWENSHLLVNSFADNTRRFMPLSDVLYGRVADFLSWCRQKNDSGLDYQSCPTSEDCENNPVDSFWKRASIQYSKDSSGVIHVMLNGSEPTGAYPIKGFFADYEIPNLQKEKITRIEIWVMHEIGGPNVESCGEGSMKVLEKRLKDMGFQYSCINDYRPVKLLQCVDHSTHPDCALKSAAAATQRKAPSLYTEQRAGLIIPLFLVLASRTQL | – | – | – | – | 5.33 ± 0.28 | 5.57 ± 1 | 25.74 ± 0.03 | 23.5 ± 0.97 | –
MKTLQFFFLFCCWKAICCNSCELTNITIAIEKEECRFCISINTTWCAGYCYTRDLVYKDPARPKIQKTCTFKELVYETVRVPGCAHHADSLYTYPVATQCHCGKCDSDSTDCTVRGLGPSYCSFGEMKE | 5.26 ± 0.36 | 4.61 ± 0.34 | 25.3 ± 0.9 | 26.6 ± 1.5 | – | – | – | – | –
